We go through 18 sequences from the supplement of paper PMC12764529.

± gives the half width of the 95% confidence interval.

Series [1] in a line: folding stability dG unfold from chymotrypsin proteolysis; higher = more stable. The method in brief:
(§1)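 Designed mini-proteins with no cysteine and under 80 residues were kept only if AlphaFold2 dimer inter-PAE was above 15. In a PA-tagged cDNA display construct, they were digested with trypsin and chymotrypsin and then sequenced. K50 was inferred by Bayesian fitting of counts, and unfolding free energy was derived per protease or combined against a sequence-predicted unfolded-state K50 and a shared folded-state K50.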

Series [2] in a line: folding stability dG unfold (combined trypsin and chymotrypsin); higher = more stable. The method in brief:
as §1

Series [3] is described as follows: folding stability dG unfold from trypsin proteolysis; higher = more stable. A digest of the protocol: as §1

For the sequence “SAGDIGRVEARPVPLPGDRPGRVVVVESSVPNLRVLLFRGPEDRWVALVETDGRVEELPLEEALRLLASSAG [r5_157_TrMRF]”, the “folding stability dG unfold” value in series [1] is 2.717 ± 0.021 kcal/mol; in series [2] it was 2.39 ± 0.076 kcal/mol; in series [3], 1.69 ± 0.043 kcal/mol.
As to “SAGDLLKNLPPEIVEVEEVKTLPDGTKYFLVKVKKDGKERVFVIELDKNGKIVKIEEMSKEEAEKLLKKSAG [r5_73_TrROS_Hall]”, the “folding stability dG unfold” value in series [1] turned out to be 3.74 ± 0.097 kcal/mol; in series [2], 3.32 ± 0.17 kcal/mol; in series [3], 1.84 ± 0.088 kcal/mol.
For the sequence “SAGDLSPSDTVDLEVTPVKVGDKWVHEVRVTVTLPDGSSLRSTLRLPPELGPPRRGRLSVPEFVALVAASAG [r5_831_JUSTAS]”, the results for the “folding stability dG unfold” value in series [1], in series [2] and in series [3] were 2.39 ± 0.044 kcal/mol, 2.14 ± 0.11 kcal/mol and 1.85 ± 0.024 kcal/mol, respectively.
Consider “SAGDPDRPLGPVEITVDPEENTLTITFGDLTLTLPLPEGVEATAEVFPDHVVLTVRYPDGTIRTFVFPLSAG [r5_21_TrMRF]”, for which the “folding stability dG unfold” value was determined as 5.09 ± 0.15 kcal/mol in series [1], 5.06 ± 0.16 kcal/mol in series [2] and 4.14 ± 0.13 kcal/mol in series [3].
In the same order, the values of “SAGDPRLRVLVVDLEVEGLEELREFVEEHPDVEVLPRPDGRVLLRRVLLVEVEEPEGEEDPDGPTLHPDSAG [r5_129_TrMRF]” are 1.44 ± 0.18 kcal/mol, 1.26 ± 0.13 kcal/mol and 0.966 ± 0.11 kcal/mol.
Turning to “SAGDWELVELRPFRFPNGLEALVAVYRNPADERLVVLTVVREPEGRLVAVALVEFDGDKLVSESVFSPGSAG [r14_828_TrMRF]”, the “folding stability dG unfold” value in series [1] worked out at 3.755 ± 0.025 kcal/mol; in series [2], 3.4 ± 0.12 kcal/mol; in series [3], 2.62 ± 0.079 kcal/mol.
“SAGDWVPIEFTIFFPDPNMTIEEIADSALMNLGLPPEDVTVKIKNIHEQPDPDGRPYYHIEVKIYIPDNSAG [r5_528_TrROS]”: the “folding stability dG unfold” value was 3.17 ± 0.13 kcal/mol in series [1], 2.75 ± 0.23 kcal/mol in series [2] and 1.7 ± 0.13 kcal/mol in series [3].
Take “SAGDWYVVIEIKHPNGRTITFVLRFDSPDELKDEILDNMRDEYGGPPEDMPITDIRVEVFDPKTGKPIWSAG [r5_482_TrROS]”: the “folding stability dG unfold” value was found to be 3.36 ± 0.09 kcal/mol in series [1], 3.15 ± 0.14 kcal/mol in series [2] and 2.65 ± 0.18 kcal/mol in series [3].
For “SAGEDGWHVVKIWIMIPGPAQLDEFLEEHPNVEIWPNPNGYFMVRITIRVPVPPPPPERDPDNGEPEPDSAG [r5_129_TrROS]”, the “folding stability dG unfold” value was 4.66 ± 0.064 kcal/mol in series [1], 4.29 ± 0.1 kcal/mol in series [2] and 3.73 ± 0.11 kcal/mol in series [3].
For “SAGEEKVEELARELAEELGVTITEVTVTEEGDTVTITVVNEETGERITITVTRNEDGEITVTITVEKLPSAG [r5_888_TrROS_Hall]” the same measures were 2.53 ± 0.17 kcal/mol, 2.62 ± 0.11 kcal/mol and 2.61 ± 0.28 kcal/mol.
“SAGEIEEILIENPETNEVYRITKVETTVELDEDGNLHTTTKVEIEKVEPPPPPEPEVEVEVKPGEKVELSAG [r5_212_TrROS_Hall]”: the “folding stability dG unfold” value in series [1] is -0.00362 ± 0.42 kcal/mol; in series [2], below -1 kcal/mol; in series [3], 0.225 ± 0.068 kcal/mol.
In the same order, the values of “SAGEIKIKVEEVDPEKPYVRVTIEIKLEPGQSIEEALKKLLKPGVEEAKIVKVEEENGYLKIEILVRRKSAG [r5_227_TrROS_Hall]” are 4.54 ± 0.28 kcal/mol, 4.01 ± 0.27 kcal/mol and 3.22 ± 0.14 kcal/mol.
Regarding “SAGEIVIPIPFDWEQAPRMAKHLLRRFQQEGKKIRIWVPDAGAVEAIKDALPPNFPIEVEPLKPGEPIPSAG [r5_911_TrROS]”, the “folding stability dG unfold” value in series [1] came out at 1.27 ± 0.27 kcal/mol; in series [2], 0.909 ± 0.14 kcal/mol; in series [3], 0.299 ± 0.34 kcal/mol.
In the same order, the values of “SAGEKIKEKIKEILKELFPDAEVEIKTLPDGTIIIKLKKDKKIIVIKKTKDGKIKIVKVMTAEELKKLSSAG [r5_852_TrROS_Hall]” are 1.01 ± 0.26 kcal/mol, 1.51 ± 0.29 kcal/mol and 2.15 ± 0.079 kcal/mol.
Turning to “SAGELEVTVTVRTETRTETREEEERRRREAAPPVRLRVFFPDTGLAVELEFDANGNIVSVKVTELPEDLSAG [r5_342_TrROS_Hall]”, the “folding stability dG unfold” value in series [1] came to 2.67 ± 0.051 kcal/mol; in series [2], 2.39 ± 0.1 kcal/mol; in series [3], 1.87 ± 0.11 kcal/mol.
Turning to “SAGEMVVLRIRVKVPVTEVKFDKETGELTVEKKTVTREITLTVPADSPEARELAEKLRELGFEVEVVEASAG [r5_468_TrROS_Hall]”, the “folding stability dG unfold” value was 3.53 ± 0.042 kcal/mol in series [1], 3.43 ± 0.062 kcal/mol in series [2] and 3.35 ± 0.14 kcal/mol in series [3].
In the same order, the values of “SAGEPIRIKIMIMNPDGKLRPIVEIPIPPDDIKEIEIKDDSIEIELPGDGKTLMFRINNYPIMIQIEDSAGG [r19_408_TrROS]” are 3.2 ± 0.036 kcal/mol, 2.77 ± 0.11 kcal/mol and 2.06 ± 0.029 kcal/mol.
For “SAGEPLVPLSEYELDVPGGQKVKIEIYALPDGTVVVRITDSEGNESEITIPRAELEKLSPEEIVARLSSAGG [r19_47_JUSTAS]”, the figures for the “folding stability dG unfold” value in series [1], in series [2] and in series [3] were 3.57 ± 0.093 kcal/mol, 3.67 ± 0.098 kcal/mol and 3.71 ± 0.14 kcal/mol, respectively.
